Source: PMC10653379

Target: eIF3a-HA (Trypanosoma brucei (endogenous in procyclic form strain 29-13))
Assay: proximity ligation

Substance: DRBD18 (natural protein)
- PLA dots per cell (dots per cell): 8
